Data: US10677782B2, “Methods of determining interferon having direct inhibitory effects on tumors and uses thereof” (SUPERLAB FAR EAST LIMITED, priority 2013, dated 2020)

What was measured:
human hepatoma SMMC-7721 = assay: Human hepatoma SMMC-7721 xenografts in nude mice (Example 1); format: in vivo; conditions: for TV (mm^3, mean ± SD) (D0): day 0, start of treatment
Protocol: The test article was used without dilution. It was stored at 4° C. until thawed for injection.
The animals used were 4-6 weeks old male BALB/cA nu/nu mice, weighing about 23±2 g, obtained from the Shanghai Institute of Materia Medica (Shanghai, P.R. China). The study protocol was reviewed by the Committee on the Use and Care of Animals of Shanghai Institute of Materia Medica for compliance with regulations, and Committee approval was obtained prior to study initiation. Wherever possible, procedures used in this study were designed to avoid or minimize discomfort, distress, and pain to the animals. Animals that experience severe or chronic pain or distress that could not be relieved were painlessly euthanized, in accordance to regulations. Animals were housed 6 to a cage. They were ear-marked with ear hole punch identification. The room temperature was maintained at 25° C.±1° C. Lighting was set at 12 hr on and 12 hr off. Food was provided ad libitum. City tap water, filtered with a 5 micrometer (μm) filter, was provided to the animals ad libitum via water bottles. Neither the Study Director nor Huiyang Life Science and Technology Corp. was aware of any contaminant in the food or water that would interfere with or influence the intent and purpose of this study.
The test article (rSIFN-co) and the vehicle control were each administered intratumorally (i.t.). The test article was administered in a volume of 0.05 ml-0.15 ml per mouse per treatment, depending on the group to which the animal was assigned. […] Normal saline was injected in a volume of 0.15 ml per mouse, which was used as vehicle control.
Animals were assigned to treatment groups randomly. Initially, all animals were placed in one large animal cage. For assignment to the study, they were later separately housed, with 6 animals per cage per treatment group. Groups 1 and 2 are Control groups in which the animals were each administered the vehicle every other day after the first treatment. […] The animals in Groups 4, 5 and 6 were each given rSIFN-co every other day after the first treatment at 0.15 mg/mouse (Group 4) or 0.10 mg/mouse (Group 5) or 0.05 mg/mouse (Group 6), respectively. Tumor growth was monitored by measuring the length and width of each tumor twice a week during the course of the study. Each animal was also weighed twice a week during the course of the study.
Before commencement of this study, the xenografts were passaged twice in nude mice. Under sterile conditions, well-grown tumors were cut into 1.5 mm^3 fragments and one such fragment was injected by trocar needle into the right flank of each study animal. […] Individual tumor size (length and width) was measured twice per week with microcalipers. Tumor volume (V) was calculated using the formula: V=(length×width^2)/2. Individual relative tumor volume (RTV) was calculated using the formula: RTV=Vt/V0, where Vt is the tumor volume on the day of measurement and V0 is the tumor volume on the day of first treatment. Therapeutic effect of the test article or control article was expressed in terms of TIC (%), using the formula: TIC (%) (mean RTV of the treated group/mean RTV of the control group)×100%; and in terms of % Inhibition, using the formula: % Inhibition=100%−T/C %.

[1] = tested on: phosphorylation of STAT1 (Tyr701), STAT2 (Tyr690), STAT3 (Tyr705) in A549 cells; assay: STAT phosphorylation by Western Blot; format: cell-based, human; conditions: 10 μg/ml; 0, 5, 15, 30, 60, 120 and 240 minutes
Source text: (§1) After treatment, the cells were collected, cellular proteins were extracted and loaded onto SDS-PAGE […] for Western Blot analysis to observe the phosphorylation of STAT1 (Tyr701), STAT2 (Tyr690), and STAT3(Tyr705). GAPDH was used as a loading control.
(§2) The primary antibodies used were: STAT1 (1:1000, Cat #: 9175S), Tyr701 phosphorylated-STAT1 (1:1000, Cat #: 9167S), STAT2 (1:500, Cat #4594), Tyr690 phosphorylated-STAT2 (1:1000, Cat #: 441S), STAT3 (1:1000, Cat #: 9132), Tyr705 phosphorylated-STAT3 (1:1000, Cat #: 9145S). Anti-mouse (Cat #: sc-2005) or rabbit (Cat #: sc-2004) or goat (Cat #: sc-2020) HRP-conjugated secondary antibodies (Santa Cruz Technology, Santa Cruz, Calif.) were used at concentrations of 1:2000. Blots were visualized by use of Luminescence/Fluorescence Imaging LAS4000 System (GE Healthcare Life Sciences, USA) with super signal west pico chemiluminescnet substrate kit (Thermo Scientific, USA).

[2] = tested on: phosphorylation of STAT1 (Tyr701), STAT2 (Tyr690), STAT3 (Tyr705) in Hela cells; assay: STAT phosphorylation by Western Blot; format: cell-based, human; conditions: 10 μg/ml; 0, 5, 15, 30, 60, 120 and 240 minutes
Source text: as §1, §2

different cancer cells = assay: Cell viability, Am-Blue assay, 48 hr, across the cancer cell lines tested; format: cell-based, human; conditions: 100 mcg/ml, any of the cancer cell lines
Protocol: Cell culture and reagents human lung cancer cell lines (A549, H1299, H460, Calu-1), human liver cancer cell lines (SMMC-7721, Huh-7, CL-1), human cervical carcinoma cell line (Hela), human breast cancer cell line (MDA-MB-231), human pancreatic cancer cell line (PANC-1) and human colon cancer cell lines (SW620, HT29, SW480) were purchased from the Shanghai Cell Collection (Shanghai, China). The above cell lines were cultured in 5% CO2 at 37° C. in corresponding complete growth medium formulated by the Shanghai Cell Collection, with 10% heat-inactivated fetal bovine serum (Biochrom, Germany), supplemented with 4 mM glutamine, 50 U/ml penicillin and […] streptomycin.
About 5×10^3 cells in 100 μl complete medium per well were plated in 96-well plates, incubated overnight, and then treated with IFN α-2b or rSIFN-co at concentrations of 100 μg/ml, 50 μg/ml, 25 μg/ml, 12.5 μg/ml, 6.25 μg/ml, 3.13 μg/ml, 1.56 μg/ml, 0.78 μg/ml, 0.39 μg/ml, and 0.20 μg/ml, respectively, for about 48 hr, at which time the cells were harvested for analysis. The cell viability rate was evaluated by SunBio Am-Blue assay kit (Cat #: SBAB8025, Shanghai SBO Medical Biotechnology Co., Ltd, Shanghai, China). […] Results are shown in FIG. 5, in which viability of the tumor cells was expressed as a percentage relative to control cells that were not treated. […]

[3] = 0.05 mg/mouse i.t. every other day, day 21

B1: rSIFN-co: Recombinant super-compound interferon; amino acid sequence SEQ ID NO: 1 (same as interferon alfacon-1), encoded by SEQ ID NO: 2, novel tertiary structure (protein)
chain: MCDLPQTHSLGNRRALILLAQMRRISPFSCLKDRHDFGFPQEEFDGNQFQKAQAISVLHEMIQQTFNLFSTKDSSAAWDESLLEKFYTELYQQLNDLEACVIQEVGVEETPLMNVDSILAVKKYFQRITLYLTEKKYSPCAWEVVRAEIMRSFSLSTNLQERLRRKE
modifications: Amino acid sequence of recombinant interferon
TV (mm^3, mean ± SD) (D0) (human hepatoma SMMC-7721; 0.05 mg/mouse i.t. every other day): 124 ± 26 mm^3
% Inhibition (human hepatoma SMMC-7721; [3]): 48.10%
TV (mm^3, mean ± SD) (D21) (human hepatoma SMMC-7721; [3]): 592 ± 139 mm^3
TV (mm^3, mean ± SD) (D0) (human hepatoma SMMC-7721; 0.10 mg/mouse i.t. every other day): 124 ± 15 mm^3
TV (mm^3, mean ± SD) (D21) (human hepatoma SMMC-7721; 0.10 mg/mouse i.t. every other day, day 21): 573 ± 287 mm^3
TV (mm^3, mean ± SD) (D0) (human hepatoma SMMC-7721; 0.15 mg/mouse i.t. every other day): 123 ± 20 mm^3
TV (mm^3, mean ± SD) (D21) (human hepatoma SMMC-7721; 0.15 mg/mouse i.t. every other day, day 21): 505 ± 226 mm^3
phosphorylation patterns for STAT1, STAT2 and STAT3 [1]: behaved similarly in their phosphorylation patterns for STAT1, STAT2 and STAT3
phosphorylation patterns for STAT1, STAT2 and STAT3 [2]: behaved similarly in their phosphorylation patterns for STAT1, STAT2 and STAT3
cell viability (different cancer cells): cell viability could not be detected
